# ± gives the uncertainty stated by the source.
# Assay: self-splicing fitness, log relative to wild type (ln ratio); higher = more splicing; Tetrahymena group I intron in knt gene, E. coli kanamycin selection, DiMSum; sequences stand for … in CUCUCU…GGAGGGAAAAGUUAUCAGGCAUGCACCUGGUAGCUAGUCUUUAAACCAAUAGAUUGCAUCGGUUUAAAAGGCAAGACCGUCAAAUUGCGGGAAAGGGGUCAACAGCCGUUCAGUACCAAGUCUCAGGGGAAACUUUGAGAUGGCCUUGCAAAGGGUAUGGUAAUAAGCUGACGGACAUGGUCCUAACCACGCAGCCAAGUCCUAAGUCAACAGAUCUUCUGUUGAUAUGGAUGCAGUUCACAGACUAAAUGUCGGUCGGGGAAGAUGUAUUCUUCUCAUAAGAUAUAGUCGGACCUCUCCUUAAUGGGAGCUAGCGGAUGAAGUGAUGCAACACUGGAGCCGCUGGGAACUAAUUUGUAUGCGAAAGUAUAUUGAUUAGUUUUGGAGUACUCGUGGUCG
# How it was run: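 A randomised library covering all eight P1ex-region intron nucleotides was built with the intron in the knt kanamycin-resistance gene on pET-22b(+) and held in E. coli BL21(DE3). Cells were grown overnight at 37°C or 30°C on LB agar, with or without 25 μg/mL kanamycin, plus 100 μg/mL carbenicillin, 50 μM IPTG and 0.2% rhamnose, and pooled colonies were amplicon-sequenced on an Illumina HiSeq 2500. DiMSum fitness is the error-weighted combination of wild-type-normalised replicate fold changes, kanamycin versus none.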
Sequence,self-splicing fitness (ln) (30 °C),self-splicing fitness (ln) (37 °C)
AGCCAGCAAUAUUACGCUAU,-1.55 ± 0.12,-0.833 ± 0.13
AGCCAGCAAUAUUACGCUCA,-1.83 ± 0.1,-1.64 ± 0.13
AGCCAGCAAUAUUACGGCAG,-1.01 ± 0.065,-1.18 ± 0.092
AGCCAGCAAUAUUACGGGAA,-2.59 ± 0.19,-0.667 ± 0.12
AGCCAGCAAUAUUACGGGUA,-1.59 ± 0.094,-1.08 ± 0.092
AGCCAGCAAUAUUACGGUAG,-2.6 ± 0.097,-0.58 ± 0.085
AGCCAGCAAUAUUACGGUAU,-2.57 ± 0.1,-1.14 ± 0.094
AGCCAGCAAUAUUACGGUCU,-3.08 ± 0.18,-2.51 ± 0.18
AGCCAGCAAUAUUACGGUGG,-4.22 ± 0.19,-2.17 ± 0.17
AGCCAGCAAUAUUACGUAUC,-2.85 ± 0.15,-2.21 ± 0.23
AGCCAGCAAUAUUACGUCUC,-3.95 ± 0.37,-2.78 ± 0.27
AGCCAGCAAUAUUACGUGGC,-3.74 ± 0.19,-3.57 ± 0.29
AGCCAGCAAUAUUACGUUAU,-3.94 ± 0.19,-1.75 ± 0.12
AGCCAGCAAUAUUACGUUCC,-2.02 ± 0.17,-2.04 ± 0.28
AGCCAGCAAUAUUACGUUCU,-0.687 ± 0.053,-0.266 ± 0.068
AGCGAGCAAUAUUACGAAUG,-3.8 ± 0.43,-2.2 ± 0.42
AGCGAGCAAUAUUACGACUU,-0.736 ± 0.078,0.37 ± 0.1
AGCGAGCAAUAUUACGAGGG,-2.74 ± 0.3,-1.19 ± 0.35
AGCGAGCAAUAUUACGAGUG,-2.92 ± 0.25,-2.12 ± 0.26
AGCGAGCAAUAUUACGAUGC,-3.11 ± 0.45,
AGCGAGCAAUAUUACGCAGU,-4.48 ± 0.28,-2.78 ± 0.25
AGCGAGCAAUAUUACGCCGA,,-0.607 ± 0.36
AGCGAGCAAUAUUACGCCUG,-3.09 ± 0.3,-2.24 ± 0.36
AGCGAGCAAUAUUACGCUGA,-3.2 ± 0.18,-2.51 ± 0.18

Sequence,self-splicing fitness (ln) (30 °C),self-splicing fitness (ln) (37 °C)
AGCGAGCAAUAUUACGCUGC,-1.51 ± 0.39,-2.23 ± 0.42
AGCGAGCAAUAUUACGGAAU,-2.56 ± 0.26,-2.66 ± 0.38
AGCGAGCAAUAUUACGGACU,-1.24 ± 0.15,0.232 ± 0.16
AGCGAGCAAUAUUACGGAUC,-3.42 ± 0.33,-1.44 ± 0.49
AGCGAGCAAUAUUACGGCAG,-1.87 ± 0.14,-1.07 ± 0.23
AGCGAGCAAUAUUACGGGUG,-2.75 ± 0.24,-1.21 ± 0.21
AGCGAGCAAUAUUACGGUAA,-2.45 ± 0.27,-2.49 ± 0.24
AGCGAGCAAUAUUACGGUCC,-0.807 ± 0.14,-0.398 ± 0.18
AGCGAGCAAUAUUACGGUGC,-4.03 ± 0.28,-2.97 ± 0.24
AGCGAGCAAUAUUACGUACA,-2.08 ± 0.31,-1.89 ± 0.2
AGCGAGCAAUAUUACGUAUG,-3.68 ± 0.35,-3.3 ± 0.32
AGCGAGCAAUAUUACGUCCU,-0.026 ± 0.17,-0.661 ± 0.18
AGCGAGCAAUAUUACGUGCG,-2.67 ± 0.094,-0.964 ± 0.098
AGCUAGCAAUAUUACGAAGA,-2.45 ± 0.24,-2.86 ± 0.18
AGCUAGCAAUAUUACGAUAG,-3.51 ± 0.2,-2.84 ± 0.23
AGCUAGCAAUAUUACGAUCA,-2.01 ± 0.12,-0.168 ± 0.11
AGCUAGCAAUAUUACGAUUA,-2.31 ± 0.21,-0.806 ± 0.14
AGCUAGCAAUAUUACGCCAU,-1.92 ± 0.31,-1.91 ± 0.43
AGCUAGCAAUAUUACGCUAC,-2.68 ± 0.48,-2.77 ± 0.38
AGCUAGCAAUAUUACGCUGC,-3.59 ± 0.48,
AGCUAGCAAUAUUACGGACA,-1.06 ± 0.12,0.0203 ± 0.15
AGCUAGCAAUAUUACGGAGC,-2.44 ± 0.17,-1.46 ± 0.23
AGCUAGCAAUAUUACGGAUA,-2.55 ± 0.17,-1.87 ± 0.14
AGCUAGCAAUAUUACGGCCU,-0.139 ± 0.073,-0.106 ± 0.091
